Test results published in patent publication US20260116949A1.

Target: endogenous TCRs of un-transduced activated human T cells (Untd)
Experiment: flow cytometry, FITC-anti-human TCR Vβ13.1 staining of un-transduced activated human T cells

% of cells positive for staining: 3.9%
Substance: FITC anti-human TCR Vβ13.1 Antibody (EBIOSCIENCE, …X, THERMO FISHER …)
